Laboratory results as given in article PMC4615894.

Biological target: CENP-W (Xenopus (endogenous in egg extract))
Assay: co-IP

For CENP-C (natural protein), the percent co-depleted was 80%.
